According to patent publication US20200181247A1:

Molecular target: commercially-prepared stable A-beta42 Oligomers (SynAging SAS) (human)
Assay: SPR; antibody covalently immobilized, stable A-beta42 oligomers (1 microM) injected

Sequence of commercially-prepared stable A-beta42 Oligomers (SynAging SAS) (human) (peptide, as listed by the source): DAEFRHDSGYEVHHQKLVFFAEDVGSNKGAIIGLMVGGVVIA

binding response units (BRUs), mean: 2.5 BRU
Substance: negative control IgG1 (antibody)
